Biological target: the molecule itself
Assay: SEC; Superdex 200 GL, 50 mM phosphate buffer pH 7.8, 1 ml/min; native mass estimated from a calibration curve of standard proteins (29-669 kDa)

B1: NobA, SAM-dependent fluorinase (5'-fluoro-5'-deoxyadenosine synthase) from Nocardia brasiliensis ATCC 700358 (enzyme, UniProt W8JNL4 1-300, looked up)
chain: MTTTNGRRPIIAFMSDLGITDDSVAQCKGLMLSVCPDVTIVDICHTMQPWDVEEGARYIVDLPRLFPEGTVFATTTYPATGTTARSVALRIAHASKGGARGQWAGSGAGFERKEGSYIYIAPNNGLLTTVIKEHGYLEAYEVSSPEVIPEQPEPTFYSREMVALPSAHLAAGFPLEKVGRRLADDEIVRFERKDPELVADHDLVGYVTNIDHPFGNVWTNIHRTDLEKLGVGYGTKLRITLDGVLPFELPLSPTFADAGEIGAAVAYLSSRGYLALARNAASLAYPYNLKAGISVQVKVG
notes: NobA, fluorinase of Nocardia brasiliensis ATCC 700358 (HUJEG-1); NdeI-HindIII fragment in pET28a; no removal of the His tag is described; also called 5'-FDA synthase; source: E. coli BL21 (DE3), purified (Ni-NTA, dialysis)
Q: B1 was tested. Which “stoichiometry N” value did it give?
A: 6
